In patent publication US20220259289A1 (Janssen / Centocor, published 2022):

Key:
[1] = biological target: T1, recombinant biotinylated CD137 protein (Fc-fusion protein, R&D Systems 838-4B) (human, UniProt Q07011 24-186, biotinylated, sites not stated); assay: ELISA, lysate on biotinylated CD137-Fc
T1 construct: Bought Fc fusion; also called CD137-Fc
How it was run: (§1)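 Biotinylated CD137-Fc, an unrelated Fc-fusion protein or human serum albumin captured 1 h on streptavidin plates blocked in Starting Block T20; diluted bacterial lysate applied 1 h. Bound binders detected with HRP-conjugated anti-Centyrin antibody (PAB25) for 1 h, then POD substrate read-out.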

[2] = biological target: human serum albumin (human) (UniProt P02768); assay: ELISA, negative control HSA
human serum albumin (human), sequence (P02768 25-609 limits assumed): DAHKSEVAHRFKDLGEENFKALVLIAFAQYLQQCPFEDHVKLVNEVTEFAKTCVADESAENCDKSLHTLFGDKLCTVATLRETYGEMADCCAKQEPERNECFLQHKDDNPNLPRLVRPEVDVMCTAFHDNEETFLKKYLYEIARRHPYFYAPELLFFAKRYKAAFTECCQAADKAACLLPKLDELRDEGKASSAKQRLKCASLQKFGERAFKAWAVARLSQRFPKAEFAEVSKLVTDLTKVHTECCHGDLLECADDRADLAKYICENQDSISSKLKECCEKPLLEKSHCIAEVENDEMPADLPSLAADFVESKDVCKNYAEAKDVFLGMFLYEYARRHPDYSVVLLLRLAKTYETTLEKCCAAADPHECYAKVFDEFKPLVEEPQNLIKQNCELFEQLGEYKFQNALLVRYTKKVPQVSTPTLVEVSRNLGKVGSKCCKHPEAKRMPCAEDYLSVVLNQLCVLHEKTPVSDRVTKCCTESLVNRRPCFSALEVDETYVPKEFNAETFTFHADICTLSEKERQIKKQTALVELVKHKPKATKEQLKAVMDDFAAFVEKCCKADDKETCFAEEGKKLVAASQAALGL

[3] = biological target: unrelated Fc-fused recombinant protein; assay: ELISA, negative control Fc protein
[4] = biological target: extracellular domain of human CD137 on the surface of CHO-K1 cells (human, UniProt Q07011 24-186); assay: flow cytometry on CHO-K1 cells with human CD137 ECD
Protocol: Cell surface binding was analyzed via flow cytometry. Cenyrins were prepared at a maximal concentration of 500 nM in the presence of 125 nM anti His-mIgG1 antibody and then serially diluted in PBS/1% FCS buffer. Samples were then applied to approx 100 000 CHO-Kl cells expressing the extracellular domain of human CD137 on their surface. Unbound Centyrin/Antibody complexes were washed away and bound FN3 domains were detected by the addition of goat anti mouse-FITC labeled antibody. Samples were then aquired by flow cytometry. Subsequently, Mean flurescence intensity was plotted against the log Centyrin concentration and EC50 values were calculated by nonlinear regression using GraphPad Prism.

human serum albumin = biological target: T2, human serum albumin (human, UniProt P02768 25-609); assay: ELISA, negative control HSA
T2 construct: Negative control of the ELISA; also called HSA
T2 sequence (P02768 25-609 limits assumed): as above
How it was run: as §1

[5] = biological target: T3, recombinant human CD137-Fc-IgG1 (human, UniProt Q07011 24-186, limits assumed); assay: SPR (Biacore T100), CD137-Fc captured by anti human IgG, 1:1 model
T3 construct: Captured by anti human IgG on the Biacore chip
Protocol: For selected FN3 domains, binding to recombinant CD137-Fc was evaluated using surface plasmon resonance (Biacore T100). For each cycle approximately 500 RU of recombinant human CD137-Fc-IgG1 was captured via an anti human IgG immobilized on the surface of a CMS chip. Once CD137-Fc protein was captured, increasing concentrations of Centyrin candidates were injected for 120 s and dissociation was then analyzed for 240 s. A flow cell immobilized with just the anti human IgG1 antibody served as reference flow cell. Kd values were subsequently extrapolated using a 1:1 kinetic binding model (BiaEvaluation software).

ELISA CD137 (RLU) [1] [RLU]	ELISA HSA (RLU) [2] [RLU]	ELISA Fc Control (RLU) [3] [RLU]	EC50 [4] [nM]	ELISA HSA (RLU) (human serum albumin)	Kd [5] [nM]	Binder
1.66e+07	4240	28300	–	–	–	ISOP193HR9P1A11 (designed binder, not shown: small tags and cut ends) LPAPKNLVVSRVTEDSARLSWTAPDAAFDSFEIYYLEGGRGEAIVLTVPGSERSYDLTGLKPGTEYLVTIYGVKCGWASNPLSAIFTT
2.15e+06	–	1040	606	480	–	ISOP193GR9P1A7 (designed binder, not shown: small tags and cut ends) LPAPKNLVVSRVTEDSARLSWTAPDAAFDSFAIFYHEFANPGEAIDLPVPGSERSYDLTGLKPGTEYDVRIYGVKGGTASIPLDAEFTT
1.64e+07	2240	13000	–	–	–	ISOP193HR9P1B7 (designed binder, not shown: small tags and cut ends) LPAPKNLVVSRVTEDSARLSWTAPDAAFDSFEIYYFELRLGGEAIVLTVPGSERSYDLTGLKPGTEYLVSIYGVKGCGYSDPLSAIFTT
6.27e+06	2640	10900	–	–	–	ISOP193HR9P1D8 (designed binder, not shown: small tags and cut ends) LPAPKNLVVSRVTEDSARLSWTAPDAAFDSFDIYYLESGRDGEAIVLTVPGSERSYDLTGLKPGTEYLVSIYGVKGCGYSDPLSAIFTT
9.02e+06	3840	13100	–	–	–	ISOP193HR9P1E2 (designed binder, not shown: small tags and cut ends) LPAPKNLVVSRVTEDSARLSWTAPDAAFDSFEIYYLEWCSGGEAIVLTVPGSERSYDLTGLKPGTEYLVTIYGVKGCAASDPLSAIFTT
3.44e+06	10000	71400	–	–	–	ISOP193HR9P1C7 (designed binder, not shown: small tags and cut ends) LPAPKNLVVSRVTEDSARLSWTAPDAAFDSFEIYYLELDSDGEAIVLTVPGSERSYDLTGLKPGTEYIVTIYGVKVCTGSRPLSAIFTT
1.42e+07	6240	48700	–	–	–	ISOP193HR9P1D11 (designed binder, not shown: small tags and cut ends) LPAPKNLVVSRVTEDSARLSWTAPDAAFDSFDIYYYELRLGGEAIVLTVPGSERSYDLTGLKPGTEYLVTIYGVKVCEQSYPLSAIFTT
1.13e+07	3040	20100	–	–	–	ISOP193HR9P1E6 (designed binder, not shown: small tags and cut ends) LPAPKNLVVSRVTEDSARLSWTAPDAAFDSFEIYYAEFGYYGEAIVLTVPGSERSYDLTGLKPGTEYLVTIYGVKGCAASDPLSAIFTT
1.46e+07	5120	25000	–	–	–	ISOP193HR9P1A6 (designed binder, not shown: small tags and cut ends) LPAPKNLVVSRVTEDSARLSWTAPDAAFDSFDIYYYELRLGGEAIVLTVPGSERSYDLTGLKPGTEYLVSIYGVKGCGYSDPLSAIFTT
1.66e+07	4080	15000	–	–	–	ISOP193HR9P1B11 (designed binder, not shown: small tags and cut ends) LPAPKNLVVSRVTEDSARLSWTAPDAAFDSFEIYYFELRLGGEAIVLTVPGSERSYDLTGLKPGTEYLVTIYGVKGCGYSDPLSAIFTT
1.48e+07	12600	48900	–	–	–	ISOP193HR9P1A7 (designed binder, not shown: small tags and cut ends) LPAPKNLVVSRVTEDSARLSWTAPDAAFDSFDIYYYELRLGGEAIVLTVPGSERSYDLTGLKPGTEYLVTIYGVKVCNASTPLSAIFTT
1.49e+07	2080	6080	–	–	–	ISOP193HR9P1A5 (designed binder, not shown: small tags and cut ends) LPAPKNLVVSRVTEDSARLSWTAPDAAFDSFDIYYYELRLGGEAIVLTVPGSERSYDLTGLKPGTEYLVTIYGVKGCGYSAPLSAIVTT

Second part, the binder before the results:

Binder	ELISA CD137 (RLU) [1] [RLU]	ELISA HSA (RLU) [2] [RLU]	ELISA Fc Control (RLU) [3] [RLU]	EC50 [4] [nM]	ELISA HSA (RLU) (human serum albumin)	Kd [5] [nM]
ISOP193ER9P1A3 (designed binder, not shown: small tags and cut ends) LPAPKNLVVSRVTEDSARLSWTTPDAAFDSFDIYYFEHPVGGEAIVLTVPGSERSYDLTGLKPGTEYLVTIYGVKGGYLSKPLSAIFTT	1.42e+07	–	3040	10.2	880	8.3
ISOP193FR9P1D7 (designed binder, not shown: small tags and cut ends) LPAPKNLVVSRVTEDSARLSWTAPDAAFDSFEIYYAEYFKNGEAIVLTVPGSERSYDLTGLKPGTEYLVTIYGVKGCDWSDPLSAISTT	2.2e+06	2640	15000	–	–	–
ISOP193FR9P1C5 (designed binder, not shown: small tags and cut ends) LPAPKNLVVSRVTEDSARLSWTAPDAAFDSFHIYYLEQYSRGEAIVLTVPGSERSYDLTGLKPGTEYLVTIYGVKGCDWSDPLSAIFTT	8.66e+06	19200	79300	–	–	–
ISOP193FR9P1C9 (designed binder, not shown: small tags and cut ends) LPAPKNLVVSRVTEDSARLSWTAPDAAFDSFQIYYFEWVVGGEAIVLTVPGSERSYDLTGLKPGTEYLVTIYGVKGCDWSDPLSAIFTT	1.23e+07	4000	21000	–	–	–
ISOP193FR9P1F8 (designed binder, not shown: small tags and cut ends) LPAPKNLVVSRVTEDSARLSWTAPDAAFDSFDINYFENELGGEAIVLTVPGSERSYDLTGLKPGTEYLVTIYGVKGCDWSDPLSAIFTT	8.57e+06	5040	25700	–	–	–
ISOP193FR9P1D5 (designed binder, not shown: small tags and cut ends) LPAPKNLVVSRVTEDSARLSWTAPDAAFDSFYIRYIEDVDFGEAIVLTVPGSERSYDLTGLKPGTEYLVTIYGVKGCDWSDPLSAIFTT	6.05e+06	10800	51700	–	–	–
ISOP193FR9P1G11 (designed binder, not shown: small tags and cut ends) LPAPKNLVVSRVTEDSARLSWTAPDAAFDSFTIYYFENENGGEAIVLTVPGSERSYDLTGLKPGTEYLVTIYGVKGCDWSDPLSAIFTT	1.08e+07	11000	60600	–	–	–
ISOP193FR9P1C1 (designed binder, not shown: small tags and cut ends) LPAPKNLVVSRVTEDSARLSWTAPDAAFDSFEIYYFENENGGEAIVLTVPGSERSYDLTGLKPGTEYLVTIYGVKGCDWSDPLSAIFTT	1.41e+07	8160	36800	–	–	–
ISOP193FR9P1G8 (designed binder, not shown: small tags and cut ends) LPAPKNLVVSRVTEDSARLSWTAPDAAFDSFEIYYFENELGGEAIVLTVPGSERSYDLTGLKPGTEYLVTIYGVKGCDWSDPLSAIFTT	1.45e+07	5040	25100	–	–	–
ISOP193FR9P1G9 (designed binder, not shown: small tags and cut ends) LPAPKNLFVSRVTEDSARLSWTAPDAAFDSFQIYYREQWWDGEAIVLTVPGSERSYDLTGLKPGTEYLVTIYGVKGCDWSDPLSAIFTT	1.28e+07	6800	33600	–	–	–
ISOP193FR9P1G7 (designed binder, not shown: small tags and cut ends) LPAPKNLVVSRVTEDSARLSWTAPDAAFDSFHIHYLEGEWGGEAIVLTVPGSERSYDLTGLKPGTEYLVTIYGVKGCDWSDPLSAIFTT	5.5e+06	11000	42300	–	–	–
ISOP193FR9P1H6 (designed binder, not shown: small tags and cut ends) LPAPKNLVVSRVTEDSARLSWTAPDAAFDSFDINYFEQPKGGEAIVLTVPGSERSYDLTGLKPGTEYLVTIYGVKGCDWSDPLSAIFTT	1.12e+07	23000	88300	–	–	–
ISOP193FR9P1A5 (designed binder, not shown: small tags and cut ends) LPAPKNLVVSRVTEDSARLSWTAPDAAFDSFEIYYIEPIAPGEAIVLTVPGSERSYDLTGLKPGTEYWVTIYGVKGCDWSDPLSAIFTT	9.07e+06	26200	95100	–	–	–
ISOP193FR9P1E10 (designed binder, not shown: small tags and cut ends) LPAPKNLVVSRVTEDSARLSWTTPDAAFDSFHIHYLEGEWGGEAIVLTVPGSERSYDLTGLKPGTEYLVTIYGVKGCDWSDPLSAIFTT	2.05e+06	31000	133000	–	–	–
